{
  "source": "paper PMC4809600",
  "about": "“The Influence of Chronic Wound Extracts on Inflammatory Cytokine and Histatin Stability” (PLoS ONE, 2016)",
  "key": {"[1]": {"assay": "Stability in PBS, capillary zone electrophoresis", "assay_type": "physicochemical", "conditions": "1 mg/ml in PBS mixed 1:1 with PBS, 37°C, 96 h, CZE, UV 200 nm, ratio to imidazole internal standard, 0 h = 100%", "method": "To determine the stability of the different peptides in CWE, histatins and cytokines were dissolved in PBS at 1 mg/ml. Histatins and cytokines were incubated in a 1:1 ratio with (i) PBS, (ii) CWE in PBS, or (iii) CWE in PBS containing PIC, in a total volume of 25 μl. Imidazole (Sigma-Aldrich) was added as an internal standard, with a final concentration of 100 μg/ml. The mixtures were incubated at 37°C, and samples were taken at 0, 24, 48, 72 and 96 h. For histatins containing mixtures, additional samples were taken after 2, 4, 8 and 16 h of incubation.\nThe samples were analyzed with a BioFocus 2000 capillary zone electrophoresis system (Bio-Rad Laboratories, Hercules, CA, USA) equipped with an uncoated fused-silica capillary of internal diameter 50 μm and a length of 24 cm. Samples were loaded by pressure injection (5 psi/sec). Separation was performed at 10 kV (cathode at the detector side) at 20°C using 0.1 M phosphate buffer (pH 2.5) as electrolyte and monitored continuously at 200 nm. Peaks were quantified with the BioFocus Integrator software. In order to quantify the percentage of intact peptides remaining after incubation with CWE, the ratios of histatins, rhIL-6 or rhCXCL8 to internal standard was set at 100% at 0h, and the ratios at the other incubation time points were related to this."}, "[2]": {"assay": "Stability in chronic wound extracts (CWE), capillary zone electrophoresis", "assay_type": "in vitro ADME, human", "conditions": "37°C, CZE, 0 h = 100%; for Percentage intact, CWE 24h / Percentage intact, CWE 48h / Percentage intact, CWE 72h / Percentage intact, CWE 96h: 1 mg/ml in PBS mixed 1:1 with CWE (1 mg/ml protein, pool of 5 donors) in PBS, UV 200 nm, ratio to imidazole", "method_in_brief": "(§1)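 Peptides or cytokines (1 mg/ml stock) mixed 1:1 with PBS or pooled chronic-wound extract (1 mg/ml protein, three pools of five donors), ±protease inhibitor cocktail, at 37 °C for up to 96 h. Analyzed by capillary zone electrophoresis (pH 2.5 phosphate, 200 nm), with peak ratio to imidazole standard relative to 0 h as % intact.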"}, "[3]": {"assay": "Stability in CWE with protease inhibitor cocktail (PIC), capillary zone electrophoresis", "assay_type": "in vitro ADME, human", "conditions": "1 mg/ml in PBS mixed 1:1 with CWE (1 mg/ml protein, pool of 5 donors) in PBS containing PIC (final 1:140 v/v), 37°C, CZE, ratio to imidazole, 0 h = 100%", "method_in_brief": "as §1"}},
  "data": [
    {"substance": "IL-6 BioV: rhIL-6 from Biovision Inc, Cat nr. 4143", "values": [
      {"measurement": "Percentage intact, PBS 96h", "setting": "[1]; experiment 1 of 3", "result": 98.6817, "unit": "%"},
      {"measurement": "Percentage intact, PBS 96h", "setting": "[1]; experiment 2 of 3", "result": 79.9235, "unit": "%"},
      {"measurement": "Percentage intact, PBS 96h", "setting": "[1]; experiment 3 of 3", "result": 96.6267, "unit": "%"},
      {"measurement": "Percentage intact, CWE 24h", "setting": "[2]; experiment 1 of 3", "result": 86.2456, "unit": "%"},
      {"measurement": "Percentage intact, CWE 24h", "setting": "[2]; experiment 2 of 3", "result": 92.3596, "unit": "%"},
      {"measurement": "Percentage intact, CWE 24h", "setting": "[2]; experiment 3 of 3", "result": 87.2422, "unit": "%"},
      {"measurement": "Percentage intact, CWE 48h", "setting": "[2]; experiment 1 of 3", "result": 74.2431, "unit": "%"},
      {"measurement": "Percentage intact, CWE 48h", "setting": "[2]; experiment 2 of 3", "result": 71.0486, "unit": "%"},
      {"measurement": "Percentage intact, CWE 48h", "setting": "[2]; experiment 3 of 3", "result": 85.9071, "unit": "%"},
      {"measurement": "Percentage intact, CWE 72h", "setting": "[2]; experiment 1 of 3", "result": 64.7766, "unit": "%"},
      {"measurement": "Percentage intact, CWE 72h", "setting": "[2]; experiment 2 of 3", "result": 67.0796, "unit": "%"},
      {"measurement": "Percentage intact, CWE 72h", "setting": "[2]; experiment 3 of 3", "result": 78.8792, "unit": "%"},
      {"measurement": "Percentage intact, CWE 96h", "setting": "[2]; 96 h, experiment 1 of 3", "result": 48.2486, "unit": "%"},
      {"measurement": "Percentage intact, CWE 96h", "setting": "[2]; 96 h, experiment 2 of 3", "result": 62.2324, "unit": "%"},
      {"measurement": "Percentage intact, CWE 96h", "setting": "[2]; 96 h, experiment 3 of 3", "result": 63.6069, "unit": "%"},
      {"measurement": "Starting material remaining intact after 96 h in CWE", "setting": "[2]; 1 mg/ml in PBS mixed 1:1 with CWE (1 mg/ml protein, pools of 5 donors), 96 h, mean of 3 independent experiments", "result": 58, "unit": "%"},
      {"measurement": "Percentage intact, CWE + PIC 24h", "setting": "[3]; experiment 1 of 3", "result": 100.779, "unit": "%"},
      {"measurement": "Percentage intact, CWE + PIC 24h", "setting": "[3]; experiment 2 of 3", "result": 107.202, "unit": "%"},
      {"measurement": "Percentage intact, CWE + PIC 24h", "setting": "[3]; experiment 3 of 3", "result": 97.2326, "unit": "%"},
      {"measurement": "Percentage intact, CWE + PIC 48h", "setting": "[3]; experiment 1 of 3", "result": 100.572, "unit": "%"},
      {"measurement": "Percentage intact, CWE + PIC 48h", "setting": "[3]; experiment 2 of 3", "result": 97.0586, "unit": "%"},
      {"measurement": "Percentage intact, CWE + PIC 48h", "setting": "[3]; experiment 3 of 3", "result": 95.2476, "unit": "%"},
      {"measurement": "Percentage intact, CWE + PIC 72h", "setting": "[3]; experiment 1 of 3", "result": 93.9962, "unit": "%"},
      {"measurement": "Percentage intact, CWE + PIC 72h", "setting": "[3]; experiment 2 of 3", "result": 96.7281, "unit": "%"},
      {"measurement": "Percentage intact, CWE + PIC 72h", "setting": "[3]; experiment 3 of 3", "result": 94.831, "unit": "%"},
      {"measurement": "Percentage intact, CWE + PIC 96h", "setting": "[3]; experiment 1 of 3", "result": 90.2939, "unit": "%"},
      {"measurement": "Percentage intact, CWE + PIC 96h", "setting": "[3]; experiment 2 of 3", "result": 94.0745, "unit": "%"},
      {"measurement": "Percentage intact, CWE + PIC 96h", "setting": "[3]; experiment 3 of 3", "result": 94.3747, "unit": "%"}
    ]}
  ]
}
